Measurements as given in US20230392126A1, “TISSUE ORGANOIDS” (priority 2016, published 2023).

Key:
[1] = Acute drug overdose test: cocaine-induced lethality; assay type: in vivo, mouse; settings: 40, 80, 120, 160 mg/kg cocaine i.p.
Method: (§1) For all behavioral experiments except where noted, C57BL/6J mice were used. Roughly equal numbers of adult male and female mice were group-housed until surgery. Mice were maintained under controlled temperature and humidity conditions on a 12 h:12 h light:dark cycle (lights on at 7:00). Water and food were available ad libitum. Mice weighed around 25-30 g at the beginning of the experiments. All procedures followed National Institutes of Health Guide for the Care and Use of Laboratory Animal and were approved by the University of Chicago Institutional Animal Care and Use Committee.
(§2) Drug: Cocaine HCl and methamphetamine HCl (Sigma-Aldrich, Saint Louis, MO) were dissolved in sterile saline and delivered intraperitoneally at appropriates doses in a volume of 10 mL/kg. […]
(§3) Acute drug overdose test: Two weeks after grafting surgery, 4 groups of GhBChE and 4 groups of GWT mice (n=8 each in each group) received i.p. injections of cocaine at 40, 120, and 160 mg/kg. […] Mice were monitored for 2 h following injection and percent of cocaine- and METH-induced lethality was calculated.
(§4) To first determine whether engrafting hBChE-expressing cells protects mice from acute systemic toxicity of cocaine, we delivered different doses of cocaine to grafted mice and calculated the lethality rates of cocaine. […]

[2] = Cocaine hydrolysis activity in vitro (clearance assay with conditioned medium)
[3] = tested on: epidermal stem cells; assay: Anchorage-independent growth in soft agar; settings: SCC cancer initiating cells as positive control
[4] = Acute drug overdose test: METH-induced lethality; assay type: in vivo, mouse; settings: 34, 68, 100, 160 mg/kg METH i.p.
Method: as §1, §2, §3, §4

[5] = Extinction and cocaine-induced reinstatement of CPP; assay type: in vivo, mouse; settings: grafted after CPP acquisition; priming 15 mg/kg cocaine
Method: (§5) Extinction and reinstatement of CPP: Following CPP acquisition, mice underwent extinction, in which the procedure was identical to that in the test day. In each extinction day, mice were allowed to explore the entire chambers for 20 min and time spent in each area was recorded. Extinction was performed until the CPP decreased to a level that was not different from that of the pretest in consecutive two days. On the following day of the last extinction, mice underwent reinstatement procedures, in which mice that were trained for cocaine CPP received an i.p. injection of 15 mg/kg cocaine, and mice that were trained for ethanol CPP received an i.p. injection of 1 g/kg ethanol. Immediate after injection, mice were allowed to explore the entire chambers for 20 min and time spent in each area was recorded.
(§6) Specific methods: One group of GhBChE and one group of GWT mice (n=9 in each group) were trained for cocaine CPP 7 days after engraftment (FIG. 18A). Mice underwent pretest on Day 1, four days of cocaine conditioning day 2 to Day 5, and CPP test on Day 6. One group of GhBChE and one group of GWT mice (n=8 in each group) were trained for ethanol CPP 7 days after engraftment (FIG. 18B). Mice underwent pretest on Day 1, four ethanol conditioning day 2 to Day 5, and CPP test on Day 6. […]

[6] = tested on: human epidermal cells; assay type: cell-based
[7] = Extinction and ethanol-induced reinstatement of CPP; assay type: in vivo, mouse; settings: 1 g/kg ethanol i.p., specificity control
Method: as §5, §6

B1: hBChE: modified human butyrylcholinesterase (E30-6, SEQ ID NO: 41), cocaine hydrolase, expressed from engineered epidermal cells / skin grafts (protein)
chain: MHSKVTIICIRFLFWFLLLCMLIGKSHTEDDIIIATKNGKVRGMNLTVFGGTVTAFLGIPYAQPPLGRLRFKKPQSLTKWSDIWNATKYANSCCQNIDQSFPGFHGSEMWNPNTDLSEDCLYLNVWIPAPKPKNATVLIWIYGGGFQTGTSSLHVYDGKFLARVERVIVVSMNYRVGALGFLALPGNPEAPGNMGLFDQQLALQWVQKNIAAFGGNPKSVTLFGESSGAASVSLHLLSPGSHSLFTRAILQSGSANAPWAVTSLYEARNRTLNLAKLTGCSRENETEIIKCLRNKDPQEILLNEAFVVPYGTALGVNFGPTVDGDFLTDMPDILLELGQFKKTQILVGVNKDEGTWFLVGGAPGFSKDNNSIITRKEFQEGLKIFFPGVSEFGKESILFHYTDWVDDQRPENYREALGDVVGDYNFICPALEFTKKFSEWGNNAFFYYFEHRSSKLPWPEWMGVMHGYEIEFVFGLPLERRDNYTKAEEILSRSIVKRWANFAKYGNPNETQNNSTSWPVFKSTEQKYLTLNTESTRIMTKLRAQQCRFWTSFFPKVLEMTGNIDEAEWEWKAGFHRWNNYMMDWKNQFNDYTSKKESCVGL
modifications: Human mutant BChE
- cocaine-induced lethality in GhBChE mice [1]: nearly lethality
- cocaine hydrolysis activity of conditioned medium [2]: significantly induced degradation of cocaine in vitro
- anchorage-independent growth (tumorigenicity) [3]: cannot grow in suspension
- METH-induced lethality, GhBChE vs GWT [4]: no difference in lethality
- cocaine-induced reinstatement of preference [5]: restored in the GWT mice but not in the GhBChE mice
- hBChE production [6]: strong hBChE production
- ethanol-induced reinstatement of CPP [7]: similarly reinstated in both GhBChE and GWT mice
